Holding throughout (assay): flow cytometry, transfected PEAK cells, 10 mcg/ml
For orientation: Flow cytometry measures light scatter and fluorescence of single cells or particles in a stream.

Assay [1] has as its target T1, human CEACAM5 (carcinoembryonic antigen, CEA), cell surface (human, UniProt P06731 35-685).
T1 construct: whole, on cells; also called CD66e
T1 sequence (looked up): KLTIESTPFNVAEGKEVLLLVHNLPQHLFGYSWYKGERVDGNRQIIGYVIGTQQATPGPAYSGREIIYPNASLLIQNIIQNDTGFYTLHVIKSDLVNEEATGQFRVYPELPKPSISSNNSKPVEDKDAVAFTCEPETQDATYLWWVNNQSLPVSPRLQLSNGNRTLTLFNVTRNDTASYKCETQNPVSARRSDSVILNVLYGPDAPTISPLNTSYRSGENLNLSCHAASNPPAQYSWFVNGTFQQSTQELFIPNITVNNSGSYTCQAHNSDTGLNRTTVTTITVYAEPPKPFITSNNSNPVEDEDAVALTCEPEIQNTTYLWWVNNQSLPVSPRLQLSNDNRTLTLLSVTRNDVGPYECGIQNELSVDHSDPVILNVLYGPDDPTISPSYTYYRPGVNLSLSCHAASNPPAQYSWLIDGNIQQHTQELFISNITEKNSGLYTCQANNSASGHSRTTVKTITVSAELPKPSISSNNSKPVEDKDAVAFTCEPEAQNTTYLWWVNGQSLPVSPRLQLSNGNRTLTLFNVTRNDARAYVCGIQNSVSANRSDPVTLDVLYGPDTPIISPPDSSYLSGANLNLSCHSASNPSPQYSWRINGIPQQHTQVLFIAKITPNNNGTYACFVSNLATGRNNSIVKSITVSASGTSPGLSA
The source says:
(§1) Vectors encoding the full-length version of human CEACAM 1, 3, 4, 5, 6, 7, 8, 18, 19, 20 and […] are used to express these proteins at the surface of PEAK and/or CHO cells as described in Example 1. Similarly, vectors encoding the full-length version of cyno CEACAM 5 and 6 are also used to express these proteins at the surface of PEAK and/or CHO cells. Non-transfected PEAK and/or CHO cells are used as negative control. Cells are harvested, counted, checked for viability and resuspended at 3×10⁶ cells/ml in FACS buffer (PBS 2% BSA, 0.1% NaN₃). 100 μl of the cell suspension are distributed in V-bottom 96-well plates (3×10⁵ cells/well). The supernatant is removed by centrifugation 3 minutes at 4° C., 1300 rpm and the cells incubated for 15 minutes at 4° C. with increasing concentrations of the antibody according to the invention. The antibodies carrying the anti-CEACAM5 arms to test are diluted in FACS buffer and the concentration range is 30 pM-500 nM. Cells are washed twice with cold FACS buffer and re-incubated for further 15 minutes at 4° C. with a compatible anti-human IgG secondary antibody. Cells are washed twice with cold FACS buffer and resuspended in 300 μl FACS buffer with 1:1500-diluted TOPRO-3 (Invitrogen). Fluorescence is measured using a FACSCalibur™ (BD Biosciences) or a Cytoflex Platform (Beckman Coulter). Dose-response binding curves are fitted using GraphPad Prism8 software. In the same manner, CEACAM1, CEACAM6 and other CEACAMs can be characterized.
(§2) For the bispecific antibodies AB17L3-1/N, AB71L3-1/N, AB72L3-1/N, AB73L3-1/N the MFI measured for binding to CEACAM5 transfected cells was found between 29000 and 41000 (Table 2). In contrast MFI found by using PEAK cells transfected with CEACAM 1,3,4,6,8 were found below 1000 with the only exception of a strong signal for AB72L3-1/N on CEACAM8 transfected cells. When MFI values obtained on transfected cells expressing any given CEACAM are divided by the values obtained on WT PEAK cells, “factors to PEAK WT” can be calculated (Table 3).

A further assay deals with T2, human CEACAM1 (human, UniProt P13688 35-526).
T2 construct: whole, on cells
T2 sequence (looked up): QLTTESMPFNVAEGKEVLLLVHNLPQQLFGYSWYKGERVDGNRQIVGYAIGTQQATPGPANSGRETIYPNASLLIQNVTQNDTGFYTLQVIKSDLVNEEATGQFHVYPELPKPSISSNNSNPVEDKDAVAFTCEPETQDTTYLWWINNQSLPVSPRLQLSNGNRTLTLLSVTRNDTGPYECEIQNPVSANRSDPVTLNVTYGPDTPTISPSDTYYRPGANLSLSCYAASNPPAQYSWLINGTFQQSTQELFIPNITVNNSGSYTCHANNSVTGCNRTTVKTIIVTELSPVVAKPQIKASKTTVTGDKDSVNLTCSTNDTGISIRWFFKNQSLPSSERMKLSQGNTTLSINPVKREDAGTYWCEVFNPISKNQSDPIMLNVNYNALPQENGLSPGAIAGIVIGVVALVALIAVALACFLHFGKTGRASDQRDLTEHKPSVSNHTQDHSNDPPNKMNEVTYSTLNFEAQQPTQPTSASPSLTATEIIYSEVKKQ
Excerpt: as §1, §2

Another assay deals with T3, human CEACAM3 (human, UniProt P40198 35-252).
T3 construct: whole, on cells
T3 sequence (looked up): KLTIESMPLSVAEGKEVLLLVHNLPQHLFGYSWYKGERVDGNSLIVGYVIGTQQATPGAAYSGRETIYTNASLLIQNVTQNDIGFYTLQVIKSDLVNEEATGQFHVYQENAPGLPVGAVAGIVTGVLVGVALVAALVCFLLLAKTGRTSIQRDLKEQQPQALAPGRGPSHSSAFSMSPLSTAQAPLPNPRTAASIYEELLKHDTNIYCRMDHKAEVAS
Excerpt: as §1, §2

For a further assay, the target named is T4, human CEACAM4 (human, UniProt O75871 36-244).
T4 construct: whole, on cells
T4 sequence (looked up): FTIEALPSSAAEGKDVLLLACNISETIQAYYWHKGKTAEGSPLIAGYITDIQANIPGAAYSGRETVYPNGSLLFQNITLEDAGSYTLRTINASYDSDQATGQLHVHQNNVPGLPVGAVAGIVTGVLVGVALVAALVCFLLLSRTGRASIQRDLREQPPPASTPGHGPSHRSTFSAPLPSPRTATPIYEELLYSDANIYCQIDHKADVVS
Excerpt: as §1, §2

In another assay the target is T5, human CEACAM8 (human, UniProt P31997 35-320).
T5 construct: whole, on cells
T5 sequence (looked up): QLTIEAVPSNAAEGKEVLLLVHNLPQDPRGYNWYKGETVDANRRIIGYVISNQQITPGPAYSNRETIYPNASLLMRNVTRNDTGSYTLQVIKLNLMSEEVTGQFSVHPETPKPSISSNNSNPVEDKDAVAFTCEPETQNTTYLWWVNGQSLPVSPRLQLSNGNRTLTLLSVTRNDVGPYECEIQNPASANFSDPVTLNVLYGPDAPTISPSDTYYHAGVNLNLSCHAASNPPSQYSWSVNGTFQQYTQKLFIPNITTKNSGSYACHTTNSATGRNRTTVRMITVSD
Excerpt: as §1, §2

Numbering of substitutions follows the chain as printed. In names and notes the source's numbering stands.

B1: AB17L3-1/N (bispecific antibody, human IgG1, kappa, lambda, L234A L235A)
heavy: EVQLVESGGGLVQPGGSLKLSCAASGFTFNTYAMNWVRQAPGKGLEWVGRIRSKYNNYATYYADSVKDRFTISRDDSKNTAYLQMNSLKTEDTAVYYCVRHGNFGNSYVSWFAYWGQGTLVTVSSASTKGPSVFPLAPSSKSTSGGTAALGCLVKDYFPEPVTVSWNSGALTSGVHTFPAVLQSSGLYSLSSVVTVPSSSLGTQTYICNVNHKPSNTKVDKRVEPKSCDKTHTCPPCPAPEAAGGPSVFLFPPKPKDTLMISRTPEVTCVVVDVSHEDPEVKFNWYVDGVEVHNAKTKPREEQYNSTYRVVSVLTVLHQDWLNGKEYKCKVSNKALAAPIEKTISKAKGQPREPQVYTLPPSREEMTKNQVSLTCLVKGFYPSDIAVEWESNGQPENNYKTTPPVLDSDGSFFLYSKLTVDKSRWQQGNVFSCSVMHEALHNHYTQKSLSLSPG
light 1: EIVLTQSPATLSLSPGERATLSCRASQSVNSNLNWYQQKPGQAPRLLIYHGSNRATGIPARFSGSGSGTDFTLTISSLEPEDFAVYYCQQFDYFKEHNTFGQGTKVEIKRTVAAPSVFIFPPSDEQLKSGTASVVCLLNNFYPREAKVQWKVDNALQSGNSQESVTEQDSKDSTYSLSSTLTLSKADYEKHKVYACEVTHQGLSSPVTKSFNRGEC
light 2: QTVVTQEPSLTVSPGGTVTLTCRSSTGAVTTSNYANWFQQKPGQAPRGLIGGTNKRAPGTPARFSGSLLGGKAALTLSGAQPEDEAEYYCALWYKQRWVFGGGTKLTVLGQPKAAPSVTLFPPSSEELQANKATLVCLISDFYPGAVTVAWKADSSPVKAGVETTTPSKQSNNKYAASSYLSLTPEQWKSHRSYSCQVTHEGSTVEKTVAPTECS
notes: Kappa-lambda body, lead optimization wave 1
Turning to B1, the MFI amounted to 29200 MFI in assay [1]; 652 MFI with human CEACAM1; 633 MFI with human CEACAM3; 431 MFI with human CEACAM4; 411 MFI in the assay with human CEACAM8.

B2: AB1L3-1/N (bispecific antibody, human IgG1, kappa, lambda, L234A L235A)
heavy: B1 heavy
light 1: B1 light 1 with Y93L, F94R, K95H
light 2: B1 light 2
notes: Kappa-lambda body: common heavy chain (hIgG1 L234A+L235A+P329A), kappa CEA light chain AB1, lambda CD3 light chain L3-1 (1A4); also called parental KL bispecific antibody
For the molecule B2, the MFI in assay [1] is 7750 MFI; in the assay with human CEACAM1, 441 MFI; in the assay with human CEACAM3 it was 358 MFI; with human CEACAM4 it was 330 MFI; in the assay with human CEACAM8, 343 MFI.

B3: AB72L3-1/N (bispecific antibody, human IgG1, kappa, lambda, L234A L235A)
heavy: B1 heavy
light 1: B1 light 1 with G51S, S52T, A55P, T56R, H97Y
light 2: B1 light 2
notes: Kappa-lambda body, lead optimization wave 2
For B3, the MFI is 41000 MFI in assay [1]; 652 MFI in the assay with human CEACAM1; 474 MFI with human CEACAM3; 402 MFI with human CEACAM4; 6290 MFI with human CEACAM8.

B4: AB73L3-1/N (bispecific antibody, human IgG1, kappa, lambda, L234A L235A)
heavy: B1 heavy
light 1: B1 light 1 with G51S, S52N, A55P, T56H, K95R, H97Y
light 2: B1 light 2
notes: as for B3
B4: the MFI in assay [1] was determined as 36200 MFI; with human CEACAM1, 542 MFI; with human CEACAM3 it was 465 MFI; with human CEACAM4, 352 MFI; with human CEACAM8, 401 MFI.

B5: AB71L3-1/N (bispecific antibody, human IgG1, kappa, lambda, L234A L235A)
heavy: B1 heavy
light 1: B1 light 1 with G51S, A55P, T56H
light 2: B1 light 2
notes: as for B3
In the case of B5, the MFI in assay [1] came out at 35100 MFI; in the assay with human CEACAM1 it was 451 MFI; with human CEACAM3 it was 358 MFI; in the assay with human CEACAM4 it was 323 MFI; with human CEACAM8 it was 391 MFI.

Values taken from patent publication US20230136228A1 (LAMKAP BIO ALPHA, published 2023).
